Values of other authors, collected in paper PMC12593480.

Target: IL6 (Homo sapiens) (UniProt P05231)
UniProt P05231, sequence (P05231 30-212): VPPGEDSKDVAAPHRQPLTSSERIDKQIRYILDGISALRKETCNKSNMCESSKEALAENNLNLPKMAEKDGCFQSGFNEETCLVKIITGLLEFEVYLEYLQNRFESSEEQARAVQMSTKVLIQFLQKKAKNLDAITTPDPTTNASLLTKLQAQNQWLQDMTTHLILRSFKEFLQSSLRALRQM

Kd: 9 nM
Substance: IL6 receptor alpha (from UniProt P08887)
